Tests used:
Type in all cases: in vivo
PEDV = PEDV newborn piglets, dose response of ovotransferrin drench with or without ORS; settings: for % Survival: 100 ml drench twice daily, after 5 days
Eimeria tenella = test: E. tenella infection (coccidiosis) in broiler chickens, growth performance and oocysts
[1] = 28-d feeding trial in weaned pigs with diarrhea, fecal score and growth performance
Description: Weaning can be a stressful time for performance animals that are transitioning to new food and newly encountering enteric pathogens. These factors can result in diarrhea to varying degrees. The objective of this study was to evaluate the effect of supplementing dietary ovotransferrin of the invention to pigs that had slight diarrhea within a week upon weaning. Growth performance and fecal score were measured. […] Pigs with diarrhea were housed in the nursery pens with 3 pigs per pen and allowed free access to the diet and water ad-libitum for the entire experimental period. Then, they were treated with a solution mixed with electrolytes and ovotransferrin by drenching for 3 days. Ovotransferrin was produced as described in example 1. The pigs were fed test diets containing 0, 0.5, and 1.0% ovotransferrin of the invention. Body weight were recorded at day 0 (study initiation), day 7, 14, 21, and 28 postweaning. Average daily gain (ADG), average daily feed intake (ADFI) and gain:feed (G:F) ratio were calculated weekly from day 7-28 postweaning. Corn-soybean meal-based diets were used for 28 days with 2 phases (Phase 1: day 0-14 postweaning and Phase 2: day 15-28 postweaning). Ovotransferrin was added to the diets by replacing corn starch proportionally. Fecal score was recorded daily through day 14. Body weight and feed consumption were recorded weekly for the diarrhea pigs.

gut microbiome = test: Fecal 16S rRNA microbiome analysis of newly weaned piglets with diarrhea
Source text: The microbiome of newly weaned piglets with diarrhea was examined when treated with components of the invention. Fecal samples of N=3 control (C) newly weaned piglets without diarrhea (D) and for N=6 newly weaned piglets that did have diarrhea were examined. 3 of these piglets with diarrhea were randomly selected and treated (T3) with 2.5 grams/piglet/day with ovotransferrin by mixing the ovotransferrin into dry feed for 5 consecutive days. Fecal samples were taken from the Diarrhea pigs, the Treated piglets and Control piglets after 5 days trial.
Fecal samples then had DNA was extracted using the PowerSoil DNA extraction kit (QIAGEN). Extracted DNA was then sequenced where the V4 variable region of the bacterial 16S rRNA gene was amplified (Primers 515F and 806R) and libraries constructed using a dual index approach1. 16SrRNA libraries were sequenced on a MiSeq V3 instrument (Illumina), targeting 2×300 PE reads. Bioinformatics occurred by processing of amplicons that was based on protocols that rely on several open-source software (FastQC2, cutadapt3, bbmap4 and the DADA25 plugin within QIIME26) to remove adaptors and primer sequences, merge PE reads, filter out low quality reads and generate counts of unique Amplicon Sequence Variants (ASVs) or unique taxonomic groups that represent the abundance of species and/or strains in each sample. […]

[2] = 0.5% ovotransferrin in diet, d 7-14
[3] = 0.5% ovotransferrin in diet, d 7-28
[4] = 0.5% ovotransferrin in diet, d 14-21
[5] = 0.5% ovotransferrin in diet, d 21-28
[6] = 1% ovotransferrin in diet, d 7-14
[7] = 1% ovotransferrin in diet, d 7-28
[8] = 1% ovotransferrin in diet, d 14-21
[9] = 1% ovotransferrin in diet, d 21-28

B1: ovotransferrin (protein, UniProt P02789 20-705, looked up)
Ovotransferrin: APPKSVIRWCTISSPEEKKCNNLRDLTQQERISLTCVQKATYLDCIKAIANNEADAISLDGGQAFEAGLAPYKLKPIAAEVYEHTEGSTTSYYAVAVVKKGTEFTVNDLQGKTSCHTGLGRSAGWNIPIGTLLHRGAIEWEGIESGSVEQAVAKFFSASCVPGATIEQKLCRQCKGDPKTKCARNAPYSGYSGAFHCLKDGKGDVAFVKHTTVNENAPDQKDEYELLCLDGSRQPVDNYKTCNWARVAAHAVVARDDNKVEDIWSFLSKAQSDFGVDTKSDFHLFGPPGKKDPVLKDLLFKDSAIMLKRVPSLMDSQLYLGFEYYSAIQSMRKDQLTPSPRENRIQWCAVGKDEKSKCDRWSVVSNGDVECTVVDETKDCIIKIMKGEADAVALDGGLVYTAGVCGLVPVMAERYDDESQCSKTDERPASYFAVAVARKDSNVNWNNLKGKKSCHTAVGRTAGWVIPMGLIHNRTGTCNFDEYFSEGCAPGSPPNSRLCQLCQGSGGIPPEKCVASSHEKYFGYTGALRCLVEKGDVAFIQHSTVEENTGGKNKADWAKNLQMDDFELLCTDGRRANVMDYRECNLAEVPTHAVVVRPEKANKIRDLLERQEKRFGVNGSEKSKFMMFESQNKDLLFKDLTKCLFKVREGTTYKEFLGDKFYTVISSLKTCNPSDILQMCSFLEGK
% Survival (PEDV; 2 grams of ovotransferrin in water): 40% | Defecations/day/group (PEDV; 2 grams of ovotransferrin, Day 0): 30 Defecations/day/group | Defecations/day/group (PEDV; 2 grams of ovotransferrin, Day 1): 18 Defecations/day/group | Defecations/day/group (PEDV; 2 grams of ovotransferrin, Day 3): 14 Defecations/day/group | Defecations/day/group (PEDV; 2 grams of ovotransferrin, Day 5): 12 Defecations/day/group | % Survival (PEDV; 5 grams of ovotransferrin in water): 60% | Defecations/day/group (PEDV; 5 grams of ovotransferrin, Day 0): 26 Defecations/day/group | Defecations/day/group (PEDV; 5 grams of ovotransferrin, Day 1): 18 Defecations/day/group | Defecations/day/group (PEDV; 5 grams of ovotransferrin, Day 3): 15 Defecations/day/group | Defecations/day/group (PEDV; 5 grams of ovotransferrin, Day 5): 12 Defecations/day/group | Weight (g) in chickens infected with E. tenella (Eimeria tenella; 0.5% ovotransferrin in feed day 7 through 21, Day 7): 110 ± 5 g | Weight (g) in chickens infected with E. tenella (Eimeria tenella; 0.5% ovotransferrin in feed, Day 14 (day of infection)): 283 ± 10 g | Weight (g) in chickens infected with E. tenella (Eimeria tenella; 0.5% ovotransferrin in feed, Day 21): 470 ± 15 g | Weight (g) in chickens infected with E. tenella (Eimeria tenella; 1.0% ovotransferrin in feed, Day 7): 115 ± 6 g | Weight (g) in chickens infected with E. tenella (Eimeria tenella; 1.0% ovotransferrin in feed, Day 14): 293 ± 14 g | Weight (g) in chickens infected with E. tenella (Eimeria tenella; 1.0% ovotransferrin in feed, Day 21): 529 ± 22 g | Weight (g) in chickens infected with E. tenella (Eimeria tenella; 2.0% ovotransferrin in feed, Day 7): 115 ± 6 g | Weight (g) in chickens infected with E. tenella (Eimeria tenella; 2.0% ovotransferrin in feed, Day 14): 293 ± 14 g | Weight (g) in chickens infected with E. tenella (Eimeria tenella; 2.0% ovotransferrin in feed, Day 21): 571 ± 15 g | Oocysts count in fecal sample (Eimeria tenella; as compared with positive infected control, *p<0.01): significantly lower | Histopathology of cecum (Eimeria tenella; cecum samples at end of experiment, versus positive infected control): normal structures of cecal epithelium | E. tenella infection (Eimeria tenella; given alone in feed): inhibited E. tenella infection | Feed conversion rate (Eimeria tenella; treated groups, E. tenella infected broiler chickens): higher | Fecal score ([1]; 0.5% ovotransferrin in diet, d 0-7, scale ≤1 normal to 4 liquid, severe diarrhea): 1.81 | Fecal score ([1]; 0.5% ovotransferrin in diet, d 0-14 (Phase 1), scale ≤1 normal to 4 severe diarrhea): 1.80 | Fecal score ([1]; 0.5% ovotransferrin in diet, d 0-28 (Overall), scale ≤1 normal to 4 severe diarrhea): 1.68 | ADFI (average daily feed intake) [1, 2]: 581.17 g/day | ADG (average daily gain) [1, 2]: 356.06 g/day | G:F (gain:feed ratio) [1, 2]: 0.613 | Fecal score ([1]; 0.5% ovotransferrin in diet, d 7-14, scale ≤1 normal to 4 severe diarrhea): 1.79 | ADFI (average daily feed intake) [1, 3]: 868.33 g/day | ADG (average daily gain) [1, 3]: 540.76 g/day | G:F (gain:feed ratio) [1, 3]: 0.623 | Body weight ([1]; 0.5% ovotransferrin in diet, d 7 postweaning): 7.87 kg | Body weight ([1]; 0.5% ovotransferrin in diet, d 14): 10.37 kg | ADFI (average daily feed intake) [1, 4]: 933.98 g/day | ADG (average daily gain) [1, 4]: 566.02 g/day | G:F (gain:feed ratio) [1, 4]: 0.606 | Body weight ([1]; 0.5% ovotransferrin in diet, d 21): 14.33 kg | ADFI (average daily feed intake) [1, 5]: 1089.83 g/day | ADG (average daily gain) [1, 5]: 700.22 g/day | G:F (gain:feed ratio) [1, 5]: 0.643 | Body weight ([1]; 0.5% ovotransferrin in diet, d 28): 19.23 kg | Fecal score ([1]; 1% ovotransferrin in diet, d 0-7, scale ≤1 normal to 4 severe diarrhea): 1.57 | Fecal score ([1]; 1% ovotransferrin in diet, d 0-14 (Phase 1), scale ≤1 normal to 4 severe diarrhea): 1.61 | Fecal score ([1]; 1% ovotransferrin in diet, d 0-28 (Overall), scale ≤1 normal to 4 severe diarrhea): 1.58 | Body weight ([1]; 1% ovotransferrin in diet, d 7): 7.61 kg | ADFI (average daily feed intake) [1, 6]: 654.76 g/day | ADG (average daily gain) [1, 6]: 496.75 g/day | G:F (gain:feed ratio) [1, 6]: 0.759 | Fecal score ([1]; 1% ovotransferrin in diet, d 7-14, scale ≤1 normal to 4 severe diarrhea): 1.64 | ADFI (average daily feed intake) [1, 7]: 1043.29 g/day | ADG (average daily gain) [1, 7]: 645.02 g/day | G:F (gain:feed ratio) [1, 7]: 0.618 | Body weight ([1]; 1% ovotransferrin in diet, d 14): 11.09 kg | ADFI (average daily feed intake) [1, 8]: 1084.42 g/day | ADG (average daily gain) [1, 8]: 584.42 g/day | G:F (gain:feed ratio) [1, 8]: 0.539 | Body weight ([1]; 1% ovotransferrin in diet, d 21): 15.18 kg | ADFI (average daily feed intake) [1, 9]: 1390.69 g/day | ADG (average daily gain) [1, 9]: 853.90 g/day | G:F (gain:feed ratio) [1, 9]: 0.614 | Body weight ([1]; 1% ovotransferrin in diet, d 28): 21.16 kg | Microbiome diversity (Shannon index, Bray-Curtis PCoA) (gut microbiome; 2.5 grams/piglet/day in dry feed for 5 consecutive days, fecal samples): brought the microbiome diversity back to levels similar to the control piglets | Abundance of Veilloneaceae, Entreobacteriaceae, Paraprevotellaceae and Treponema (gut microbiome; 2.5 grams/piglet/day in dry feed for 5 days, indicator species analysis): Reductions to the initial control baselines

From patent US12076374B1, “Anti-microbial and anti-inflammatory compositions and methods for treating enteric diseases in animals” (Vets Plus, Inc., priority 2019, dated 2024)
